Article doi:10.1101/338061

Key:
MBD1 MBD = biological target: T1, MBD1 MBD (Homo sapiens, UniProt Q9UIS9 1-77); experiment: ITC
T1 sequence: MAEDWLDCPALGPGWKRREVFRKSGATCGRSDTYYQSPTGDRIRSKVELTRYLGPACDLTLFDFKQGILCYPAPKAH

MBD4 MBD = MBD4 MBD (Homo sapiens, UniProt O95243 55-152); experiment: ITC
MBD2 MBD = MBD2 MBD (Homo sapiens, UniProt Q9UBB5 143-220); experiment: ITC
MeCP2 MBD = MeCP2 MBD (Homo sapiens, UniProt P51608 80-164); experiment: ITC
MBD3 MBD = MBD3 MBD (Homo sapiens, UniProt O95983 1-71); experiment: ITC
Chain of MBD3 MBD (O95983 1-71): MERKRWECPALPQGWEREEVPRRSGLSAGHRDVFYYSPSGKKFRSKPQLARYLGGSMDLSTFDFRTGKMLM

[1] = biological target: MBD3 MBD (crystallization) (Homo sapiens, UniProt O95983 1-71); experiment: crystal structure
Chain of MBD3 MBD (crystallization) (O95983 1-71): as above

MBD2 MBD R188A = MBD2 MBD R188A (Homo sapiens, UniProt Q9UBB5 143-220, R188A); experiment: ITC
Chain of MBD2 MBD R188A (Q9UBB5 143-220 R188A): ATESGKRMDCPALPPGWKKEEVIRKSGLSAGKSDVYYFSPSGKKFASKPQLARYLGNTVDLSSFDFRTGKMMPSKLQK

MBD2 MBD R166A = MBD2 MBD R166A (Homo sapiens, UniProt Q9UBB5 143-220, R166A); experiment: ITC
Chain of MBD2 MBD R166A (Q9UBB5 143-220 R166A): as the sequence (Q9UBB5 143-220 R188A) above, with R24A, A46R counted along it

Chain of MeCP2 MBD (P51608 80-164): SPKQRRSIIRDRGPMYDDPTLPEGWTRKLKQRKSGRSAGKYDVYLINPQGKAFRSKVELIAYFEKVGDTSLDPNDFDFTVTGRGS
Chain of MBD2 MBD (Q9UBB5 143-220): as the sequence (Q9UBB5 143-220 R188A) above, with A46R counted along it
Chain of MBD4 MBD (O95243 55-152): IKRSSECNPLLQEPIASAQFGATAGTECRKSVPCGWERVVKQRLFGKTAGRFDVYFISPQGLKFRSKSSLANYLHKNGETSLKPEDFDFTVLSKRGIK

B1: mCG/TG (dsDNA)
DNA 1: GTCAACGTTACG
DNA 2: CGTAATGTTGAC
modifications: 5mC at position 6 of strand 1
Question: What does the source list for B1?
Answer: Kd (MBD1 MBD): 2200 ± 300 nM; Kd (MBD4 MBD): 1500 ± 300 nM; Kd (MBD2 MBD): 1600 ± 200 nM; Kd (MeCP2 MBD): 1200 ± 200 nM; Kd (MBD3 MBD): 6500 ± 1200 nM

B2: AmCGT (mCG) (dsDNA)
DNA 1: GCCAACGTTGGC
DNA 2: GCCAACGTTGGC
modifications: 5mC at position 6 of both strands
Question: Which results are given for B2?
Answer: Kd (MBD1 MBD): 1000 ± 100 nM; Kd (MBD4 MBD): 400 ± 100 nM; Kd (MBD2 MBD): 900 ± 200 nM; Kd (MeCP2 MBD): 1200 ± 200 nM; Kd (MBD3 MBD): 5400 ± 1200 nM

B3: AmCGC (dsDNA)
DNA 1: GCCAACGCTGGC
DNA 2: GCCAGCGTTGGC
modifications: 5mC at position 6 of both strands
Question: Does B3 bind [1]?
Answer: Result: binds

B4: GmCGC (dsDNA)
DNA 1: GCCAGCGCTGGC
DNA 2: GCCAGCGCTGGC
modifications: 5mC at position 6 of both strands
Question: With B4 as the binder, how does the Kd (MBD2 MBD R188A) read?
Answer: Its Kd is 5600 ± 500 nM.

Question: Does B4 bind (MBD2 MBD R166A)?
Answer: Result: no binding

Question: What about the Kd (MBD3 MBD) of the same binder?
Answer: The Kd was 5200 ± 500 nM.

B5: hmCG (dsDNA)
DNA 1: GCCAGCGCTGGC
DNA 2: GCCAGCGCTGGC
modifications: 5hmC at position 6 of both strands
Question: What does the source list for B5?
Answer: Kd (MBD2 MBD): 9700 ± 2300 nM; Kd (MeCP2 MBD): 32000 ± 4000 nM
